# According to publication PMC5433087:
# Molecular target: HER3 (Human, His-tagged; Sino Biological) (human) (UniProt P21860)
# Assay: SPR
# UniProt P21860, sequence (P21860 20-643): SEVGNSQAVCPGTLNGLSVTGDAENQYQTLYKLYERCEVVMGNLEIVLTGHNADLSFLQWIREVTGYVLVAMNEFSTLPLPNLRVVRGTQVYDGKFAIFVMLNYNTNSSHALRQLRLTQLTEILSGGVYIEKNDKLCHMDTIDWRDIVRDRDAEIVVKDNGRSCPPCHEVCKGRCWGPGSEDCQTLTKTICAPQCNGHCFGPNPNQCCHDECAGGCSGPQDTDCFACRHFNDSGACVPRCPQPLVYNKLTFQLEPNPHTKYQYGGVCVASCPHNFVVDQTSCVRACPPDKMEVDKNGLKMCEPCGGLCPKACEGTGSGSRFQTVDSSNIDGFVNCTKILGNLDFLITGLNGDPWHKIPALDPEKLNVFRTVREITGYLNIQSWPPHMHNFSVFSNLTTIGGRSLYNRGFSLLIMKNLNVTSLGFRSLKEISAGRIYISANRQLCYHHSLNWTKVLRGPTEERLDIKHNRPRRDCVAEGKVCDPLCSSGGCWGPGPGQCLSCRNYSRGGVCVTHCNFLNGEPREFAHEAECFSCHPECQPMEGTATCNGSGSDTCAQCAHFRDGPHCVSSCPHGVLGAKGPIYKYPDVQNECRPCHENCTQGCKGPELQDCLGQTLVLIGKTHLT
row,Kd [nM],Substance
1,0.327,bivalent HER3 affibody (two Z_(05413) domains joined by a spacer of three repeat units) (designed binder)
2,0.316,monovalent HER3 affibody (Z_(05413) affibody) (designed binder)
3,2.34,trivalent HER3 affibody (three Z_(05413) domains joined by spacers of three repeat units) (designed binder)
